Test results as given in paper PMC3512577 (Nature structural & molecular biology, 2011).

Tests used:
[1] = target: recombinant C3d D122A (D1115A) (human) (UniProt P01024); experiment: SPR
[2] = target: recombinant C3d E117A (E1110A), with C17A (C1011A) (human, UniProt P01024 996-1306, E117A (E1110A)); experiment: SPR
[3] = target: recombinant C3d E117A/D122A (E1110A/D1115A), with C17A (C1011A) (human, UniProt P01024 996-1306, E117A (E1110A) | D122A (D1115A)); experiment: SPR
[4] = target: recombinant C3d D122A (D1115A), with C17A (C1011A) (human, UniProt P01024 996-1306, D122A (D1115A)); experiment: SPR
plasma-derived C3d = plasma-derived C3d (UniProt P01024 996-1303); experiment: NMR titration

| Kd [1] [µM] | fold decrease in binding against C3d E160A and I164A [2] [fold] | fold decrease in binding against wild-type C3d [2] [fold] | Kd [3] [µM] | fold decrease in affinity against wild-type C3d [3] [fold] | fold decrease in binding against C3d E160A and I164A [4] [fold] | fold decrease in binding against wild-type C3d [4] [fold] | binding result (plasma-derived C3d) | Molecule |
| --- | --- | --- | --- | --- | --- | --- | --- | --- |
| 46 |  |  |  |  |  |  |  | FH19–20 L1189F (from UniProt P08603 1108-1231) (domain or fragment) |
| 46 |  |  |  |  |  |  |  | complement factor H CCP19–20, wild type (FH19–20) (from UniProt P08603 1108-1231) (domain or fragment) |
|  | 2 | 4 | ~30000 | ~1600 | 3 | 6 | binds | FH19–20 (wild-type recombinant fragment of human complement factor H, CCP modules 19 and 20) (domain or fragment, UniProt P08603 1108-1231, looked up, 15N-labelled (NMR experiments only)) KCGPPPPIDNGDITSFPLSVYAPASSVEYQCQNLYQLEGNKRITCRNGQWSEPPKCLHPCVISREIMENYNIALRWTAKQKLYSRTGESVEFVCKRGYRLSSRSHTLRTTCWDGKLEYPTCAKR |
